The solubility is the dissolved amount per volume that the medium holds.

Residues, ends and D or L forms follow the SMILES beside them. *: point of attachment. Doxorubicin(3'-N) = COc1cccc2c1C(=O)c1c(O)c3c(c(O)c1C2=O)C[C@@](O)(C(=O)CO)C[C@@H]3O[C@H]1C[C@H](N*)[C@H](O)[C@H](C)O1; Mal(CH2CH2O)6CH2CH2CO = O=C1C=CC(=O)N1CCOCCOCCOCCOCCOCCOCCC(=O)*; MaleimidoPEG4propanoyl = O=C1C=CC(=O)N1CCOCCOCCOCCOCCC(=O)*; Butanoyl(4-maleimido) = O=C1C=CC(=O)N1CCCC(=O)*; Propanoyl(3-maleimido) = O=C1C=CC(=O)N1CCC(=O)*; X1 = O=C1C=CC(=O)N1CCOCCOCCOCCC(=O)*; PEG6 = NCCOCCOCCOCCOCCOCCOCCC(=O)O; X2 = O=C1C=CC(=O)N1CCOCCOCCC(=O)*; PEG4 = NCCOCCOCCOCCOCCC(=O)O; PEG3 = NCCOCCOCCOCCC(=O)O; PEG2 = NCCOCCOCCC(=O)O

The values below come from patent publication US11319341B2, “Immune-stimulating soluble doxorubicin-conjugated complex” (Yafei (Shanghai) Biopharmaceutical Co., Ltd., priority 2016, dated 2022).

The first data set is described as follows: Water solubility of freeze-dried compounds in water (observation and HPLC).
Conditions: not given
Regarding `COc1cccc2c1C(=O)c1c(O)c3c(c(O)c1C2=O)C[C@@](O)(C(=O)CO)C[C@@H]3O[C@H]1C[C@H](NC(=O)[C@H](CC(C)C)NC(=O)[C@H](CC(N)=O)NC(=O)[C@H](C)NC(=O)[C@H](C)NC(=O)[C@H](CCC(=O)O)NC(=O)CCOCCOCCN2C(=O)C=CC2=O)[C@H](O)[C@H](C)O1` [QHL-021] (X2-EAANL-{Doxorubicin(3'-N)}), the solubility was more than 20 mg/mL.
Regarding `COc1cccc2c1C(=O)c1c(O)c3c(c(O)c1C2=O)C[C@@](O)(C(=O)CO)C[C@@H]3O[C@H]1C[C@H](NC(=O)[C@H](CC(C)C)NC(=O)[C@H](CC(N)=O)NC(=O)[C@H](C)NC(=O)[C@H](C)NC(=O)[C@H](CCC(=O)O)NC(=O)CCOCCOCCOCCN2C(=O)C=CC2=O)[C@H](O)[C@H](C)O1` [QHL-022] (X1-EAANL-{Doxorubicin(3'-N)}), the solubility is more than 20 mg/mL.
Still for that read-out and setting: as for `COc1cccc2c1C(=O)c1c(O)c3c(c(O)c1C2=O)C[C@@](O)(C(=O)CO)C[C@@H]3O[C@H]1C[C@H](NC(=O)[C@H](CC(C)C)NC(=O)[C@H](CC(N)=O)NC(=O)[C@H](C)NC(=O)[C@H](C)NC(=O)[C@H](CCC(=O)O)NC(=O)CCOCCOCCOCCOCCN2C(=O)C=CC2=O)[C@H](O)[C@H](C)O1` [QHL-023] (MaleimidoPEG4propanoyl-EAANL-{Doxorubicin(3'-N)}), the figure is more than 25 mg/mL.
The same measure, in the same setting: as for `COc1cccc2c1C(=O)c1c(O)c3c(c(O)c1C2=O)C[C@@](O)(C(=O)CO)C[C@@H]3O[C@H]1C[C@H](NC(=O)[C@H](CC(C)C)NC(=O)[C@H](CC(N)=O)NC(=O)[C@H](C)NC(=O)[C@H](C)NC(=O)[C@H](CCC(=O)O)NC(=O)CCOCCOCCOCCOCCOCCOCCN2C(=O)C=CC2=O)[C@H](O)[C@H](C)O1` [QHL-024] ({Mal(CH2CH2O)6CH2CH2CO}-EAANL-{Doxorubicin(3'-N)}), the figure is more than 30 mg/mL; as for `COc1cccc2c1C(=O)c1c(O)c3c(c(O)c1C2=O)C[C@@](O)(C(=O)CO)C[C@@H]3O[C@H]1C[C@H](NC(=O)[C@H](CC(C)C)NC(=O)[C@H](CC(N)=O)NC(=O)[C@H](C)NC(=O)[C@H](C)NC(=O)[C@H](CC(=O)O)NC(=O)CCOCCOCCN2C(=O)C=CC2=O)[C@H](O)[C@H](C)O1` [QHL-033] (X2-DAANL-{Doxorubicin(3'-N)}), more than 20 mg/mL; as for `COc1cccc2c1C(=O)c1c(O)c3c(c(O)c1C2=O)C[C@@](O)(C(=O)CO)C[C@@H]3O[C@H]1C[C@H](NC(=O)[C@H](CC(C)C)NC(=O)[C@H](CC(N)=O)NC(=O)[C@H](C)NC(=O)[C@H](C)NC(=O)[C@H](CC(=O)O)NC(=O)CCOCCOCCOCCN2C(=O)C=CC2=O)[C@H](O)[C@H](C)O1` [QHL-034] (X1-DAANL-{Doxorubicin(3'-N)}), more than 20 mg/mL.
On the same count and under the same terms, to `COc1cccc2c1C(=O)c1c(O)c3c(c(O)c1C2=O)C[C@@](O)(C(=O)CO)C[C@@H]3O[C@H]1C[C@H](NC(=O)[C@H](CC(C)C)NC(=O)[C@H](CC(N)=O)NC(=O)[C@H](C)NC(=O)[C@H](C)NC(=O)[C@H](CC(=O)O)NC(=O)CCOCCOCCOCCOCCN2C(=O)C=CC2=O)[C@H](O)[C@H](C)O1` [QHL-035] (MaleimidoPEG4propanoyl-DAANL-{Doxorubicin(3'-N)}) belongs more than 25 mg/mL.
`COc1cccc2c1C(=O)c1c(O)c3c(c(O)c1C2=O)C[C@@](O)(C(=O)CO)C[C@@H]3O[C@H]1C[C@H](NC(=O)[C@H](CC(C)C)NC(=O)[C@H](CC(N)=O)NC(=O)[C@H](C)NC(=O)[C@H](C)NC(=O)[C@H](CC(=O)O)NC(=O)CCOCCOCCOCCOCCOCCOCCN2C(=O)C=CC2=O)[C@H](O)[C@H](C)O1` [QHL-036] ({Mal(CH2CH2O)6CH2CH2CO}-DAANL-{Doxorubicin(3'-N)}) had a solubility of more than 30 mg/mL.
Still for that read-out and setting: as for `COc1cccc2c1C(=O)c1c(O)c3c(c(O)c1C2=O)C[C@@](O)(C(=O)CO)C[C@@H]3O[C@H]1C[C@H](NC(=O)[C@H](CC(C)C)NC(=O)[C@H](CC(N)=O)NC(=O)[C@H](C)NC(=O)[C@H](C)NC(=O)[C@H](CCC(=O)O)NC(=O)CCOCCOCCNC(=O)CCN2C(=O)C=CC2=O)[C@H](O)[C@H](C)O1` [QHL-039] ({Propanoyl(3-maleimido)-PEG2}-EAANL-{Doxorubicin(3'-N)}), the figure is more than 20 mg/mL; as for `COc1cccc2c1C(=O)c1c(O)c3c(c(O)c1C2=O)C[C@@](O)(C(=O)CO)C[C@@H]3O[C@H]1C[C@H](NC(=O)[C@H](CC(C)C)NC(=O)[C@H](CC(N)=O)NC(=O)[C@H](C)NC(=O)[C@H](C)NC(=O)[C@H](CC(=O)O)NC(=O)CCOCCOCCNC(=O)CCN2C(=O)C=CC2=O)[C@H](O)[C@H](C)O1` [QHL-042] ({Propanoyl(3-maleimido)-PEG2}-DAANL-{Doxorubicin(3'-N)}), more than 20 mg/mL; as for `COc1cccc2c1C(=O)c1c(O)c3c(c(O)c1C2=O)C[C@@](O)(C(=O)CO)C[C@@H]3O[C@H]1C[C@H](NC(=O)[C@H](CC(C)C)NC(=O)[C@H](CC(N)=O)NC(=O)[C@H](C)NC(=O)[C@H](C)NC(=O)[C@H](CCC(=O)O)NC(=O)CCOCCOCCOCCNC(=O)CCN2C(=O)C=CC2=O)[C@H](O)[C@H](C)O1` [QHL-045] ({Propanoyl(3-maleimido)-PEG3}-EAANL-{Doxorubicin(3'-N)}), more than 20 mg/mL.
The same measure, in the same setting: as for `COc1cccc2c1C(=O)c1c(O)c3c(c(O)c1C2=O)C[C@@](O)(C(=O)CO)C[C@@H]3O[C@H]1C[C@H](NC(=O)[C@H](CC(C)C)NC(=O)[C@H](CC(N)=O)NC(=O)[C@H](C)NC(=O)[C@H](C)NC(=O)[C@H](CC(=O)O)NC(=O)CCOCCOCCOCCNC(=O)CCN2C(=O)C=CC2=O)[C@H](O)[C@H](C)O1` [QHL-048] ({Propanoyl(3-maleimido)-PEG3}-DAANL-{Doxorubicin(3'-N)}), the figure is more than 20 mg/mL; as for `COc1cccc2c1C(=O)c1c(O)c3c(c(O)c1C2=O)C[C@@](O)(C(=O)CO)C[C@@H]3O[C@H]1C[C@H](NC(=O)[C@H](CC(C)C)NC(=O)[C@H](CC(N)=O)NC(=O)[C@H](C)NC(=O)[C@H](C)NC(=O)[C@H](CCC(=O)O)NC(=O)CCOCCOCCOCCOCCNC(=O)CCN2C(=O)C=CC2=O)[C@H](O)[C@H](C)O1` [QHL-051] ({Propanoyl(3-maleimido)-PEG4}-EAANL-{Doxorubicin(3'-N)}), more than 25 mg/mL.
Same read-out and setting: as for `COc1cccc2c1C(=O)c1c(O)c3c(c(O)c1C2=O)C[C@@](O)(C(=O)CO)C[C@@H]3O[C@H]1C[C@H](NC(=O)[C@H](CC(C)C)NC(=O)[C@H](CC(N)=O)NC(=O)[C@H](C)NC(=O)[C@H](C)NC(=O)[C@H](CC(=O)O)NC(=O)CCOCCOCCOCCOCCNC(=O)CCN2C(=O)C=CC2=O)[C@H](O)[C@H](C)O1` [QHL-054] ({Propanoyl(3-maleimido)-PEG4}-DAANL-{Doxorubicin(3'-N)}), the figure is more than 25 mg/mL.
The compound `COc1cccc2c1C(=O)c1c(O)c3c(c(O)c1C2=O)C[C@@](O)(C(=O)CO)C[C@@H]3O[C@H]1C[C@H](NC(=O)[C@H](CC(C)C)NC(=O)[C@H](CC(N)=O)NC(=O)[C@H](C)NC(=O)[C@H](C)NC(=O)[C@H](CCC(=O)O)NC(=O)CCOCCOCCOCCOCCOCCOCCNC(=O)CCN2C(=O)C=CC2=O)[C@H](O)[C@H](C)O1` [QHL-057] ({Propanoyl(3-maleimido)-PEG6}-EAANL-{Doxorubicin(3'-N)}) returned a solubility of more than 25 mg/mL.
On the same count and under the same terms, to `COc1cccc2c1C(=O)c1c(O)c3c(c(O)c1C2=O)C[C@@](O)(C(=O)CO)C[C@@H]3O[C@H]1C[C@H](NC(=O)[C@H](CC(C)C)NC(=O)[C@H](CC(N)=O)NC(=O)[C@H](C)NC(=O)[C@H](C)NC(=O)[C@H](CC(=O)O)NC(=O)CCOCCOCCOCCOCCOCCOCCNC(=O)CCN2C(=O)C=CC2=O)[C@H](O)[C@H](C)O1` [QHL-060] ({Propanoyl(3-maleimido)-PEG6}-DAANL-{Doxorubicin(3'-N)}) belongs more than 25 mg/mL; to `COc1cccc2c1C(=O)c1c(O)c3c(c(O)c1C2=O)C[C@@](O)(C(=O)CO)C[C@@H]3O[C@H]1C[C@H](NC(=O)[C@H](CC(C)C)NC(=O)[C@H](CC(N)=O)NC(=O)[C@H](C)NC(=O)[C@H](C)NC(=O)[C@H](CCC(=O)O)NC(=O)CCOCCOCCNC(=O)CCCN2C(=O)C=CC2=O)[C@H](O)[C@H](C)O1` [QHL-063] ({Butanoyl(4-maleimido)-PEG2}-EAANL-{Doxorubicin(3'-N)}), more than 15 mg/mL; to `COc1cccc2c1C(=O)c1c(O)c3c(c(O)c1C2=O)C[C@@](O)(C(=O)CO)C[C@@H]3O[C@H]1C[C@H](NC(=O)[C@H](CC(C)C)NC(=O)[C@H](CC(N)=O)NC(=O)[C@H](C)NC(=O)[C@H](C)NC(=O)[C@H](CC(=O)O)NC(=O)CCOCCOCCNC(=O)CCCN2C(=O)C=CC2=O)[C@H](O)[C@H](C)O1` [QHL-066] ({Butanoyl(4-maleimido)-PEG2}-DAANL-{Doxorubicin(3'-N)}), more than 15 mg/mL.
For the compound `COc1cccc2c1C(=O)c1c(O)c3c(c(O)c1C2=O)C[C@@](O)(C(=O)CO)C[C@@H]3O[C@H]1C[C@H](NC(=O)[C@H](CC(C)C)NC(=O)[C@H](CC(N)=O)NC(=O)[C@H](C)NC(=O)[C@H](C)NC(=O)[C@H](CCC(=O)O)NC(=O)CCOCCOCCOCCNC(=O)CCCN2C(=O)C=CC2=O)[C@H](O)[C@H](C)O1` [QHL-069] ({Butanoyl(4-maleimido)-PEG3}-EAANL-{Doxorubicin(3'-N)}), the solubility is more than 25 mg/mL.
Same read-out and setting: as for `COc1cccc2c1C(=O)c1c(O)c3c(c(O)c1C2=O)C[C@@](O)(C(=O)CO)C[C@@H]3O[C@H]1C[C@H](NC(=O)[C@H](CC(C)C)NC(=O)[C@H](CC(N)=O)NC(=O)[C@H](C)NC(=O)[C@H](C)NC(=O)[C@H](CC(=O)O)NC(=O)CCOCCOCCOCCNC(=O)CCCN2C(=O)C=CC2=O)[C@H](O)[C@H](C)O1` [QHL-072] ({Butanoyl(4-maleimido)-PEG3}-DAANL-{Doxorubicin(3'-N)}), the figure is more than 25 mg/mL; as for `COc1cccc2c1C(=O)c1c(O)c3c(c(O)c1C2=O)C[C@@](O)(C(=O)CO)C[C@@H]3O[C@H]1C[C@H](NC(=O)[C@H](CC(C)C)NC(=O)[C@H](CC(N)=O)NC(=O)[C@H](C)NC(=O)[C@H](C)NC(=O)[C@H](CCC(=O)O)NC(=O)CCOCCOCCOCCOCCNC(=O)CCCN2C(=O)C=CC2=O)[C@H](O)[C@H](C)O1` [QHL-075] ({Butanoyl(4-maleimido)-PEG4}-EAANL-{Doxorubicin(3'-N)}), more than 25 mg/mL.

The same data set, now with this note: freeze-dried compound dissolved in water; observation and HPLC test (>95%).
Regarding `COc1cccc2c1C(=O)c1c(O)c3c(c(O)c1C2=O)C[C@@](O)(C(=O)CO)C[C@@H]3O[C@H]1C[C@H](N)[C@H](O)[C@H](C)O1` [C1: DOX], the solubility is less than 1 mg/mL.
